Data on two substances can be found in patent US6087330A, “Process to inhibit binding of the integrin α4 β1 to VCAM-1 or fibronectin and cyclic peptides therefor” (Texas Biotechnology Corporation, priority 1998, dated 2000).

Bridges are numbered along the chain shown (N, C = ends). Where no end group is shown, it is not given here.

The target in the assay is T1, integrin α4 β1 binding to VCAM-1 (Homo sapiens, UniProt P05556+P13612).
T1 construct: endogenous in cells; host or cells: HL-60 cells (integrin α4β1); VCAM-IgG fusion made in house in transfected COS cells
T1 sequence (P13612 34-1032): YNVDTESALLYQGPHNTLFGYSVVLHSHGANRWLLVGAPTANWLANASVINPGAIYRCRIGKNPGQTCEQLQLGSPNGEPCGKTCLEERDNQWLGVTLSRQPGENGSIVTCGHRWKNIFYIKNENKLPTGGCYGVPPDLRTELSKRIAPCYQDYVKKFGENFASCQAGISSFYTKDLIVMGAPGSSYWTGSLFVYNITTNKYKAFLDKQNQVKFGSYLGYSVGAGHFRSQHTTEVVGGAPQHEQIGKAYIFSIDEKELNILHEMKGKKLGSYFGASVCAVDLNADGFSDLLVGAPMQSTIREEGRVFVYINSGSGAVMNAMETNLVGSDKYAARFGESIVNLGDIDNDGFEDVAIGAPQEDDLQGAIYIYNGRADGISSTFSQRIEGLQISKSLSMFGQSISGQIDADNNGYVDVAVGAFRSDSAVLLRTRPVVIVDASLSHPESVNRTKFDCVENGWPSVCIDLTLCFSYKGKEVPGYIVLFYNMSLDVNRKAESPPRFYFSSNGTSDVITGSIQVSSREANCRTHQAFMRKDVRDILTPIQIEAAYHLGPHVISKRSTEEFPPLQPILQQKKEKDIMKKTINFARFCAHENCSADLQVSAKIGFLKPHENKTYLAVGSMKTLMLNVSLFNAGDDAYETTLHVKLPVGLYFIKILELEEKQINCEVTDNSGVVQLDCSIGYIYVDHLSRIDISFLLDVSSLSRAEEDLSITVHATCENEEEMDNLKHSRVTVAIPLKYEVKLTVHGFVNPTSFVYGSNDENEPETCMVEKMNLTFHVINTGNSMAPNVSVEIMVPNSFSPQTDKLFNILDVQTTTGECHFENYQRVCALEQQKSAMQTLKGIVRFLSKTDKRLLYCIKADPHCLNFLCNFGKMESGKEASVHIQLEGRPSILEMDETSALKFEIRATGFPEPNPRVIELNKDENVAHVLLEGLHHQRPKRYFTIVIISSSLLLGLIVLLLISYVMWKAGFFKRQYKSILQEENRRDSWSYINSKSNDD
T1 sequence (P05556 21-798): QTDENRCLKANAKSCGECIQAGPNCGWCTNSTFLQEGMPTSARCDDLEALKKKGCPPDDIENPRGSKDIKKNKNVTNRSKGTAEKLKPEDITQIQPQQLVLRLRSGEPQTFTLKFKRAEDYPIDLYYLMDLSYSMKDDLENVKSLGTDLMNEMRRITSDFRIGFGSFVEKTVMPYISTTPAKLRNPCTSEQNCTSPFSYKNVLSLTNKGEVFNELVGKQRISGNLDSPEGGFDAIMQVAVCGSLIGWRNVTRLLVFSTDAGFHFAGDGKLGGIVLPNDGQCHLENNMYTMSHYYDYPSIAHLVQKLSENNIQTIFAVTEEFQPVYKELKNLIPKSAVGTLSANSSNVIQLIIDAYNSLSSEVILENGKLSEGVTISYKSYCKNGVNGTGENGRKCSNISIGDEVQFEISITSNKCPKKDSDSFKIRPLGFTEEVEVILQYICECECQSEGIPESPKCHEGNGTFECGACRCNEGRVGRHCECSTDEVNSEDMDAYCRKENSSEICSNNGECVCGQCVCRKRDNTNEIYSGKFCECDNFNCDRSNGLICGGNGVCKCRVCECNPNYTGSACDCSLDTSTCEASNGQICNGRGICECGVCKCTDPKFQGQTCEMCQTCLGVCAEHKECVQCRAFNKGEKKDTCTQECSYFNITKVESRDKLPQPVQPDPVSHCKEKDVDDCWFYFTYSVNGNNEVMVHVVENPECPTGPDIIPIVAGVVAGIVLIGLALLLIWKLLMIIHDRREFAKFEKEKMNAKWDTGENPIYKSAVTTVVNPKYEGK
As to the kind of experiment: VCAM-1/α4 β1 Binding Assay (binding of labeled HL-60 cells to VCAM-IgG fusion protein on magnetic beads). Particulars: 10 min at room temperature. The assay is classed as cell-based. As for the experimental part:
Peptides were assayed for their ability to inhibit the binding of the integrin α4 β1 to VCAM. […] The assays are described below.
VCAM-1/α4 β1 Binding Assay
The assay involves determining the ability of cells that express α4 β1 to bind directly to purified VCAM. The integrin-expressing cell type used in this assay was HL-60, a human promyelocytic line.
An expression vector was designed such that a region of VCAM known to bind the integrin was expressed as a fusion protein with mouse IgG. A cDNA containing the two N-terminal domains of human VCAM was generated by the polymerase chain reaction (PCR) from a full length VCAM cDNA. Similarly, a cDNA containing the hinge, CH2 and CH3 regions of mouse IgG, was amplified by PCR from cDNA made from total RNA isolated from the hybridoma cell line 402C10. […]
HL-60 cells were fluorescently labeled with Calcein AM C-3099 (Molecular Probes) and resuspended in 1 ml of binding buffer (Hank's balanced salt solution, pH 7.4, 1.0 mM CaCl2, 1.0 mM MgCl2). […] The remaining bound cells were lysed in 50 mM Tris, pH 7.4, 5.0 mM EDTA, 1.0% NP-40 and quantitated by fluorimetry using a Millipore Cytofluor 2350 fluorimeter. Dose response curves were calculated and IC50 values determined. Alternatively, the percent adhesion was determined at a single peptide concentration for comparison among peptides.

With “Cys-Trp-Leu-Asp-Leu-Cys-acid (CWLDLC-OH; disulfide 1-6; not fully specified (N-terminus, bridges); printed as Cys-Trp-Leu-Asp-Leu-Cys-acid) [SEQ ID NO:28]”, the “concentration of peptide found to significantly inhibit the binding of α4 β1 integrin to VCAM-1” value was “less than 10 μM”.
The same measure for “Cys-Trp-Leu-Asp-Tyr-Cys-acid (CWLDYC-OH; disulfide 1-6; not fully specified (N-terminus, bridges); printed as Cys-Trp-Leu-Asp-Tyr-Cys-acid) [SEQ ID NO:29]”: “less than 10 μM”.
